Results: the DeepSol protein solubility set

Test: soluble on expression in E. coli; label from the status in PepcDB or PDB records

Sequence	soluble on expression in E. coli
MGSDKIHHHHHHMKKLFVLFLAVLSVLVLAEVKNPDTIIDATIGEPDTLDPHFAYDTASGEVIYNVYENLIAYKGESLTEFEPRLAERWEILDDGKTYKFYIRKGVKFHEGGDLTPEDVEYSFERGLIFDPTAGPMWMLWEALFGVDSLETFVEEKIGKPYSELFDENGEPLPEYRDALIKIYTDYIDPAIEVEGDAVVFHLVRPFAPFMYILAQSASWSAVLDKEWCIEIGCWDGRADTWWKYHDIRKEDSPLYARMNGTGPFKFVEWDRAQQKVILERNDNYWREPAKIKRVIIWGIDEWSTRRAMFLQGDADICAVPTQYLEQVEGKPGVTVVKGLPELAVTSLHFAWNVPEDSKYIGSGKLDGNGIPPDFFSDENVRKAFIYAFDYDTFINEVLKGLGRKIPTDLPEGLLGFNEELLNDPDAPHFDIVKATEYFKKAWNGEVWKKGFKITLLYNTGNEVRRQAAEMLKAYIEMINPKFKVEVRGVQWPTYLDATKRGEVPAFIIGWLADYPDPHNFIFTYYHSAGVYSGRQGENFRKFVSTPHPDLGGRSLDELIEEAIAKTDPAERQALYEEIQRFAMKHALGMPLYQPLGVRVQRSWVKGWYHNPMRPGDDYYVLWKAEE	not soluble
MLNVGDSVQIAGCSTKKRLLETSSGCDSFDTLIGGALVNSSIVLIDEYRSRCYGSYLIRSFLAEGLHHGHRCFIADPTEDPKEINLIPSRRTSTDMQNQEIPNSLPAENENSMKIAWRYGNVKQVSSSLGPLSNENQYDFTKHVENPNVDVYAEKVFTLKGIYETLCQIVKENEAHTKSGGRGGPKKNLLRVVLKNIDMEICEDYKFLGRFLCCLRSLARSSYMIVYITANSFRVPKPTWRILESAADTHIQLMPFDENEKKMFKHLGTAHGYFHLKSLPRLMSVGTHTPPILDLIFEASSRKGFQIRVMHLPPAFDEPAPGHQNTPSCQNIDF	soluble
MSLSKVFTIGEILVEIMASKIGQPFDQPGIWNGPYPSGAPAIFIDQVTRLGVPCGIISCVGNDGFGDINIHRLAADGVDIRGISVLPLEATGSAFVTYHNSGDRDFIFNIKNAACGKLSAQHVDENILKDCTHFHIMGSSLFSFHMVDAVKKAVTIVKANGGVISFDPNIRKEMLDIPEMRDALHFVLELTDIYMPSEGEVLLLSPHSTPERAIAGFLEEGVKEVIVKRGNQGASYYSANEQFHVESYPVEEVDPTGAGDCFGGAWIACRQLGFDAHRALQYANACGALAVTRRGPMEGTSRLMEIETFIQRHDMSIREAAQEGHHHHHH	soluble
TCGLRQYSQPQFRIKGGLFADIASHPWQAAIFAKHRRSPGERFLCGGILISSCWILSAAHCFQERFPPHHLTVILGRTYRVVPGEEEQKFEVEKYIVHKEFDDDTYDNDIALLQLKSDSSRCAQESSVVRTVCLPPADLQLPDWTECELSGYGKHEALSPFYSERLKEAHVRLYPSSRCTSQHLLNRTVTDNMLCAGDTRSGGPQANLHDACQGDSGGPLVCLNDGRMTLVGIISWGLGCGQKDVPGVYTKVTNYLDWIRDNMRP	soluble
MQESAQFFNDTGVSMSMQGFHNEAIACLKKGLALEPDNSLMWLNLGLSYYAAKRQNDSKFALFQSLKYNPYEADAWDSLGLVLFETGDIDQAERAFESAIKLEPENGRVWNNYGTVLFNKENYRAARRAFESAVTLDPEMGDAVFNLRDTYLELGMNDLAERCNKILKEMDYQE	not soluble
MAKEFLIELGTEELPPKQLRTLAEAFAANFAAELATADIAHEGVTWFATPRRLALKVANLAESQPDRVVEKRGPAVNVAFDADGKPTKAAEGWARGNGITVEQAERLVTDKGEWLLFKEQVQGQQTASVVVEMAAKALANLPIAKPMRWGDKETQFIRPVKTLTILFGSELIQGEILGVASARTLRGHRFMGEAEFTIESAEQYPAILEERGKVIADYATRKAMIIEGSQQAAQQLGGIADLEDALVEEVTSLVEWPVVMTAKFEEKFLKVPAEALVYTMKGDQKYFPVYDASKKLLPNFIFVSNIESKEPRHIVEGNEKVVRPRLADAEFFFNTDRKRPLVDRLPLLENAIFQQQLGTIKDKTDRITELAGYIAEQIGADVEKSKRAGLLAKCDLMTSMVFEFTDTQGVMGMHYARHDGEAEEVAVALNEQYMPRFAGDELPSRGVSAAVAMADKLDTIVGIFGIGQAPKGSDPFALRRASLGVLRILVEYGYQLDLVDLIAKAKSLFGDRLTNANVEQEVIEFMLGRFPTWYQDAGFSIDIIQAVLARNPTKPADFDQRVKAVSHFRALEEAEALAAANKRVGNILAKYDGELGEEIDLALLQEDAEKALAEAVEIMAEALEPAFATGNYQEALSKLAGLRAPVDAFFDNVMVMADDEALKKNRLTLLNKLRNLFLQIADISLLQK	not soluble
